Reference: article PMC8113585

Target: SARS-CoV-2 nucleocapsid (N) protein, full-length;mAb nCoV396 (human IgG1) (SARS-CoV-2;Homo sapiens) (UniProt P0DTC9)
Assay: EMSA

AAGUUCGUUU [TRS RNA]
Kd: 15.1 µM
